Source: patent publication US20140212379A1 (AbbVie / Abbott, published 2014)

T1: Human mature IL-1α (human, UniProt P01583 113-271)
T1 sequence: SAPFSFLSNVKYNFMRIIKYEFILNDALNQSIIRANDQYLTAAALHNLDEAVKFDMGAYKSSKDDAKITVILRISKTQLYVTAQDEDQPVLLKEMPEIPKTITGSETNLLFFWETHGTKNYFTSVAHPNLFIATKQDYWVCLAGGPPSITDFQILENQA

T2: Cynomolgus IL-1β (cynomolgus, UniProt P79182 117-268)
T2 sequence (looked up): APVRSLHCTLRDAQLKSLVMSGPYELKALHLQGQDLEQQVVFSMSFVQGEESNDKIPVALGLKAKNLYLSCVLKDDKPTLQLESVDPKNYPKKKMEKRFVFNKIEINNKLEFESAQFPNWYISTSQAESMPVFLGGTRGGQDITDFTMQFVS

T3: Cynomolgus IL-1α (cynomolgus, UniProt P79340 113-271)
T3 sequence (looked up): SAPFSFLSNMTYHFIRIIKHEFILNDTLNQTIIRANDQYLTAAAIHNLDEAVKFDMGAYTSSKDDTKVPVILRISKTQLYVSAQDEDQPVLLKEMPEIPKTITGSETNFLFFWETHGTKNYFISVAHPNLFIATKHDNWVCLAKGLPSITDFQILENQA


Key:
Assay in all cases: cell-based or functional assay
[1] = target: T1, Human mature IL-1α
[2] = target: T2, Cynomolgus IL-1β
[3] = target: T3, Cynomolgus IL-1α
[4] = target: Human mature IL-1β (human, UniProt P01584 117-269)

| Binder | Potency (pM), inhibition of IL-1-induced hIL-8 in MRC5 cells [1] [pM] | Potency (pM), inhibition of IL-1-induced hIL-8 in MRC5 cells [2] [pM] | Potency (pM), inhibition of IL-1-induced hIL-8 in MRC5 cells [3] [pM] | Potency (pM), inhibition of IL-1-induced hIL-8 in MRC5 cells [4] [pM] |
| --- | --- | --- | --- | --- |
| E26.13-SS-X3 JM DVD-Ig (bispecific antibody, human IgG1, kappa, L234A L235A) heavy: not shown light: DIQMTQSPSSLSASVGDRVTITCRASGNIHNYLTWYQQTPGKAPKLLIYNAKTLADGVPSRFSGSGSGTDYTFTISSLQPEDIATYYCQHFWSIPYTFGQGTKLQITRTVAAPDIQMTQSPSSVSASVGDRVTITCRASQGISSWLAWYQQKPGKAPKLLIYEASNLETGVPSRFSGSGSGSDFTLTISSLQPEDFATYYCQQTSSFLLSFGGGTKVEIKRTVAAPSVFIFPPSDEQLKSGTASVVCLLNNFYPREAKVQWKVDNALQSGNSQESVTEQDSKDSTYSLSSTLTLSKADYEKHKVYACEVTHQGLSSPVTKSFNRGEC | 26.5 | 17.6 | 1880 | – |
| E26.35-SS-X3 DVD-Ig (bispecific antibody, human IgG1, kappa, L234A L235A) heavy: not shown light: DIQMTQSPSSLSASVGDRVTITCRASGNIHNYLTWYQQTPGKAPKLLIYNAKTLADGVPSRFSGSGSGTDYTFTISSLQPEDIATYYCQHFWSIPYTFGQGTKLQITRTVAAPDIQMTQSPSSVSASVGDRVTITCRASQGISSWLAWYQQKPGKAPKLLIYEASNLETGVPSRFSGSGSGSDFTLTISSLQPEDFATYYCQQTSSFLLSFGGGTKVEHKRTVAAPSVFIFPPSDEQLKSGTASVVCLLNNFYPREAKVQWKVDNALQSGNSQESVTEQDSKDSTYSLSSTLTLSKADYEKHKVYACEVTHQGLSSPVTKSFNRGEC | 25.8 | 0.6 | 474 | 1.8 |
| E26.13-LL-X3 DVD-Ig (bispecific antibody, human IgG1, kappa, L234A L235A) heavy: not shown light: DIQMTQSPSSLSASVGDRVTITCRASGNIHNYLTWYQQTPGKAPKLLIYNAKTLADGVPSRFSGSGSGTDYTFTISSLQPEDIATYYCQHFWSIPYTFGQGTKLQITRTVAAPSVFIFPPDIQMTQSPSSVSASVGDRVTITCRASQGISSWLAWYQQKPGKAPKLLIYEASNLETGVPSRFSGSGSGSDFTLTISSLQPEDFATYYCQQTSSFLLSFGGGTKVEHKRTVAAPSVFIFPPSDEQLKSGTASVVCLLNNFYPREAKVQWKVDNALQSGNSQESVTEQDSKDSTYSLSSTLTLSKADYEKHKVYACEVTHQGLSSPVTKSFNRGEC | 10.2 | – | 1050 | – |
| X3-LL-E26.13 DVD-Ig (bispecific antibody, human IgG1, kappa, L234A L235A) heavy: not shown light: DIQMTQSPSSVSASVGDRVTITCRASQGISSWLAWYQQKPGKAPKLLIYEASNLETGVPSRFSGSGSGSDFTLTISSLQPEDFATYYCQQTSSFLLSFGGGTKVEHKRTVAAPSVFIFPPDIQMTQSPSSLSASVGDRVTITCRASGNIHNYLTWYQQTPGKAPKLLIYNAKTLADGVPSRFSGSGSGTDYTFTISSLQPEDIATYYCQHFWSIPYTFGQGTKLQITRTVAAPSVFIFPPSDEQLKSGTASVVCLLNNFYPREAKVQWKVDNALQSGNSQESVTEQDSKDSTYSLSSTLTLSKADYEKHKVYACEVTHQGLSSPVTKSFNRGEC | 8.9 | – | – | 1470 |
